B1: P-selectin (Homo sapiens), P16109 (parent)
chain: MANCQIAILYQRFQRVVFGISQLLCFSALISELTNQKEVAAWTYHYSTKAYSWNISRKYCQNRYTDLVAIQNKNEIDYLNKVLPYYSSYYWIGIRKNNKTWTWVGTKKALTNEAENWADNEPNNKRNNEDCVEIYIKSPSAPGKWNDEHCLKKKHALCYTASCQDMSCSKQGECLETIGNYTCSCYPGFYGPECEYVRECGELELPQHVLMNCSHPLGNFSFNSQCSFHCTDGYQVNGPSKLECLASGIWTNKPPQCLAAQCPPLKIPERGNMTCLHSAKAFQHQSSCSFSCEEGFALVGPEVVQCTASGVWTAPAPVCKAVQCQHLEAPSEGTMDCVHPLTAFAYGSSCKFECQPGYRVRGLDMLRCIDSGHWSAPLPTCEAISCEPLESPVHGSMDCSPSLRAFQYDTNCSFRCAEGFMLRGADIVRCDNLGQWTAPAPVCQALQCQDLPVPNEARVNCSHPFGAFRYQSVCSFTCNEGLLLVGASVLQCLATGNWNSVPPECQAIPCTPLLSPQNGTMTCVQPLGSSSYKSTCQFICDEGYSLSGPERLDCTRSGRWTDSPPMCEAIKCPELFAPEQGSLDCSDTRGEFNVGSTCHFSCDNGFKLEGPNNVECTTSGRWSATPPTCKGIASLPTPGVQCPALTTPGQGTMYCRHHPGTFGFNTTCYFGCNAGFTLIGDSTLSCRPSGQWTAVTPACRAVKCSELHVNKPIAMNCSNLWGNFSYGSICSFHCLEGQLLNGSAQTACQENGHWSTTVPTCQAGPLTIQEALTYFGGAVASTIGLIMGGTLLALLRKRFRQKDDGKCPLNPHSHLGTYGVFTNAAFDPSP
partner: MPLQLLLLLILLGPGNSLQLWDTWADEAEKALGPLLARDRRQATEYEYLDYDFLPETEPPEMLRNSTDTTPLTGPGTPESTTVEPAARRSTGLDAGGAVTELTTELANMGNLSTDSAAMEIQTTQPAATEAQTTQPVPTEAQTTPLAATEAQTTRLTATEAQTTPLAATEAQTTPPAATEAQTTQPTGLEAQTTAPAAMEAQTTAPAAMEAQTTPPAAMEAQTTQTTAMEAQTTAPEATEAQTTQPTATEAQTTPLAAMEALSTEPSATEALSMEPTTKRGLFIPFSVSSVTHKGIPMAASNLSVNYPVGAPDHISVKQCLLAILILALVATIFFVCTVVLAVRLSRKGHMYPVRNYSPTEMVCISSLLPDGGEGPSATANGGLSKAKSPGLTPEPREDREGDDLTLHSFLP

Variants of: B1
Details: with selpl_human SELPLG

Variant | effect of a mutation on the interaction
A69H | increasing interaction

Reference: IntAct's records for PubMed 19118202
